Patent US20230416343A1
Where two headings read alike, the source gives them in different places.

What was measured:
Conditions in all cases: remark: other sources report otherwise
[1] = target: T1, Recombinant SARS-CoV2 RBD having a carboxy terminal his tag (SARS-CoV-2), P0DTC2
[2] = target: T1, Recombinant SARS-CoV2 RBD having a …; remark: listed apart in the source
[3] = target: SARS-CoV-2 variant spike protein E484K on HEK293 cells (SARS-CoV-2), P0DTC2
[4] = target: SARS-CoV-2 variant spike protein S494P on HEK293 cells (SARS-CoV-2), P0DTC2
[5] = target: SARS-CoV-2 variant spike protein F490S on HEK293 cells (SARS-CoV-2), P0DTC2
[6] = target: SARS-CoV-2 variant spike protein deletion mutant del 243-244 on HEK293 cells (SARS-CoV-2), P0DTC2
[7] = target: T2, SARS-CoV-2 D614G mutant spike protein expressed on HEK293 cells (SARS-CoV-2), P0DTC2
[8] = target: T3, SARS-CoV-2 spike protein expressed on HEK293 cells (SARS-CoV-2), P0DTC2; experiment: flow cytometry on HEK293 cells expressing the spike; table 'spike'
[9] = target: T3, SARS-CoV-2 spike protein expressed on …
[10] = target: T2, SARS-CoV-2 D614G mutant spike protein …; remark: listed apart in the source

| Binder | Kd [1] [nM] | Kd [2] [nM] | EC50 [3] [µg/mL] | EC50 [4] [µg/mL] | EC50 [5] [µg/mL] | EC50 [6] [µg/mL] | EC50 [7] [µg/mL] | Maxi % [8] [%] | EC50 [9] [µg/mL] | EC50 [10] [µg/mL] | Maxi % [10] [%] |
| --- | --- | --- | --- | --- | --- | --- | --- | --- | --- | --- | --- |
| antibody S1D2 (antibody, V domains shown) VH: EVQLVESGGGLIQPGGSLRLSCAASGFTVSSNYMSWVRQAPGKGLEWVSIIYPGGSTNYADSVKGRFTISRDNSRNTLYLQMNSLRAEDTAVYYCARELGYYGMDVWGQGTTVTVSS VL: DIQMTQSPSSVSASVGDRVTITCRASQGISTWLVWYQQKPGKAPNLLIYGASSLQSGVPSRFSGSGSGTDFTLTISSLQPEDFATYYCQQANSFPYTFGQGTKLEIK | 46.2 | 46 | – | – | – | – | – | – | – | – | – |
| S1D2LALA antibody (STI-1499) (antibody, V domains shown) VH: EVQLVESGGGLIQPGGSLRLSCAASGFTVSSNYMSWVRQAPGKGLEWVSIIYPGGSTNYADSVKGRFTISRDNSRNTLYLQMNSLRAEDTAVYYCARELGYYGMDVWGQGTTVTVSS VL: DIQMTQSPSSVSASVGDRVTITCRASQGISTWLVWYQQKPGKAPNLLIYGASSLQSGVPSRFSGSGSGTDFTLTISSLQPEDFATYYCQQANSFPYTFGQGTKLEIK | – | – | 140 | 194 | 38 | 180 | 70 | 100 | 0.1 | 0.13 | 100 |
